Common to all, as to experiment: cell binding
Experiment [1] concerns the target T1, human MAdCAM expressed on cells (human, UniProt Q13477 19-382).
T1 construct: whole, on cells; also called MADCAM1
T1 sequence (looked up): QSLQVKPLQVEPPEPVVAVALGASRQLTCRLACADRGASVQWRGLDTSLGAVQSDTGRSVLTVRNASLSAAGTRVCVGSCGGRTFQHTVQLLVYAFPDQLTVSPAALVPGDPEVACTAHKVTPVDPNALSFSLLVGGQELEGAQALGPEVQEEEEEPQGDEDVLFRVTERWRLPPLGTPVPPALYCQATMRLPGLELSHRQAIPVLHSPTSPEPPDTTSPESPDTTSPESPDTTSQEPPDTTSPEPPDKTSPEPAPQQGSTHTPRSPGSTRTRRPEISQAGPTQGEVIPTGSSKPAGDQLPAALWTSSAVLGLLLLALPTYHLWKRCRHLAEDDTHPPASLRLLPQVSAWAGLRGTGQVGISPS

The target in experiment [2] is T2, mouse MAdCAM expressed on cells (mouse, UniProt Q61826 22-405).
T2 construct: whole, on cells
T2 sequence (looked up): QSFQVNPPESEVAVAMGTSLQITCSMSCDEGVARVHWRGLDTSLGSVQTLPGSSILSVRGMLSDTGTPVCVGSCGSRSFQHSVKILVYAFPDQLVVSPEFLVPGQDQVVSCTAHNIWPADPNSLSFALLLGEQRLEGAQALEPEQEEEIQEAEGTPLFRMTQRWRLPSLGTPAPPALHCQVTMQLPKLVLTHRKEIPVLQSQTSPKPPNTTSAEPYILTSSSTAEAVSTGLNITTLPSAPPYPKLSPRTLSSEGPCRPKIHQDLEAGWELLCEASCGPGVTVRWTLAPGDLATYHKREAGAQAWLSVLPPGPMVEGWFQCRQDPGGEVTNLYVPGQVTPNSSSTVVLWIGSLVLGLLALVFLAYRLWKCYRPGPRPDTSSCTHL

Experiment [3] deals with T1, human MAdCAM expressed on cells. This is another data set of the same source.
Experiment [4] deals with T2, mouse MAdCAM expressed on cells. The source holds these as a separate data set.

Read-outs that look alike come from different tables or passages of the source.

B1: MAdCAM antibody Clone ID 38 of Table 7 (IgG) (antibody, V domains shown)
VH: QVQLVQSGAEVKKPGASVKVSCKASGYTFTDYFLHWVRQAPGQGLEWMGWMNPTSGNTGYAQKFQGRVTMTRDTSTSTVYMELSSLRSEDTAVYYCAREGEGSGFDYWGQGTLVTVSS
VL: DIQMTQSPSSLSASVGDRVTITCRASQGINSWLAWYQQKPGKAPKLLIYDASNLETGVPSRFSGSGSGTDFTLTISSLQPEDFATYYCQQSYSTPLTFGGGTKVEIK
notes: IgG format
As for B1, the values for the binding result in experiment [1] and in experiment [2] were “binds” and “no binding”, respectively.

B2: MAdCAM antibody Clone ID 21 of Table 7 (IgG) (antibody, V domains shown)
VH: EVQLVESGGGLVKPGGSLRLSCAASGFTFSSYWMSWVRQAPGKGLEWVSYISGDSGYTNYAAPVKGRFTISRDDSKNTLYLQMNSLKTEDTAVYYCARANSSGWYDWYFDLWGRGTLVTVSS
VL: not shown
notes: IgG format
Consider B2, for which the binding result in experiment [1] is “binds”; in experiment [2], “no binding”.

B3: MAdCAM antibody Clone ID 1 of Table 7 (IgG) (antibody, V domains shown)
VH: EVQLLESGGGLVQPGGSLRLSCAASGFTFSSYGMHWVRQAPGKGLEWVAVISDDGSDKYYADSVKGRFTISRDNSKNTLYLQMNSLRAEDTAVYYCTTSKYYYYYGMDVWGQGTTVTVSS
VL: DIQMTQSPSSLSASVGDRVTITCQASQDISKSLNWYQQKPGKAPKLLIYAASSLQSGVPSRFSGSGSGTDFTLTISSLQPEDFATYYCQQGYSTPLTFGGGTKVEIK
notes: IgG format
Take B3: the binding result in experiment [1] and in experiment [2] was “binds” each time.

B4: MAdCAM antibody Clone ID 39 of Table 7 (IgG) (antibody, V domains shown)
VH: QVQLVQSGAEVKKPGASVKVSCKASGYTFTSYYMHWVRQAPGQGLEWMAWMNPNSGNTGYAQKFQGRVTMTRDTSTSTVYMELSSLRSEDTAVYYCARDYDFWSGSLGYWGQGTLVTVSS
VL: DIQMTQSPSSLSASVGDRVTITCRASQGISNYLAWYQQKPGKAPKLLIYAASSLQSGVPSRFSGSGSGTDFTLTISSLQPEDFATYYCQQSYSTPWTFGQGTKVEIK
notes: IgG format
For the molecule B4, the binding result in experiment [1] is “binds”; in experiment [2] it was “no binding”.

B5: MAdCAM antibody Clone ID 42 of Table 7 (IgG) (antibody, V domains shown)
VH: QVQLVQSGAEVKKPGASVKVSCKASGYTLTDYYMHWVRQAPGQGLEWMGIINPSGGSTSYAQKFQGRVTMTRDTSTSTVYMELSSLRSEDTAVYYCAREEYSSSSGYFDYWGQGTLVTVSS
VL: DIQMTQSPSSLSASVGDRVTITCRASQGISSWLAWYQQKPGKAPKLLIYAASSLQSGVPSRFSGSGSGTDFTLTISSLQPEDFATYYCQQSYSTPLTFGQGTKVEIK
notes: IgG format
With B5, the binding result in experiment [1] is reported as “binds”; in experiment [2], “no binding”.

B6: MAdCAM antibody Clone ID 37 of Table 7 (IgG) (antibody, V domains shown)
VH: EVQLLESGGGLVQPGGSLRLSCAASGFTFSDYGMPWVRQAPGKGLEWVSAISGSGGSTYYADSVKGRFTISRDNSKNTLYLQMNSLRAEDTAVYYCARDGGWQPAAILDYWGQGTLVTVSS
VL: DIQMTQSPSSLSASVGDRVTITCRASQGISNNLNWYQQKPGKAPKLLIYDASNLETGVPSRFSGSGSGTDFTLTISSLQPEDFATYYCQQSYSTPLTFGQGTKVEIK
notes: IgG format
In the case of B6, the binding result in experiment [1] was “binds”; in experiment [2] it was “no binding”.

B7: MAdCAM antibody Clone ID 25 of Table 7 (IgG) (antibody, V domains shown)
VH: EVQLLESGGGLVQPGGSLRLSCAASGFTFSNAWMSWVRQAPGKGLEWVSTIVGNGGATYYADSVKGRFTISRDNSKNTLYLQMNSLRAEDTAVYYCARDNPLRWQGMDVWGQGTLVTVSS
VL: DIQMTQSPSSLSASVGDRVTITCRASQDISNYLNWYQQKPGKAPKLLIYAASSLQSGVPSRFSGSGSGTDFTLTISSLQPEDFATYYCQQSYSIPPTFGPGTKVDIK
notes: IgG format
On to B7, for which the binding result in experiment [1] was “binds”; in experiment [2] it was “no binding”.

B8: MAdCAM antibody Clone ID 16 of Table 7 (IgG) (antibody, V domains shown)
VH: EVQLLESGGGLVQPGGSLRLSCAASGFTFDDYAMHWVRQAPGKGLEWVSYIDASGTTIYYADSVKGRFTISRDNSKNTLYLQMNSLRAEDTAVYYCAKDQAAAGYWYFDLWGRGTLVTVSS
VL: DIQMTQSPSSLSASVGDRVTITCQASQDISNYLNWYQQKPGKAPKLLIYKASTLESGVPSRFSGSGSGTDFTLTISSLQPEDFATYYCQQSYSTPITFGQGTRLEIK
notes: IgG format
In the case of B8, the binding result in experiment [1] is “binds”; in experiment [2], “no binding”.

B9: MAdCAM antibody Clone ID 59 of Table 7 (IgG) (antibody, V domains shown)
VH: EVQLLESGGGLVQPGGSLRLSCAASGFSFSDYGMHWVRQAPGKGLEWVSAISGSGGSTYYADSVKGRFTISRDNSKNTLYLQMNSLRAEDTAVYYCARDGGWQPAAILDYWGQGTLVTVSS
VL: DIQMTQSPSSLSASVGDRVTITCRASQGISNNLNWYQQKPGKAPKLLIYDASNLETGVPSRFSGSGSGTDFTLTISSLQPEDFATYYCQQSYSTPLTFGGGTKVEIK
notes: IgG format
In the case of B9, the binding result in experiment [1] is recorded as “binds”; in experiment [2] it was “no binding”.

B10: MAdCAM antibody Clone ID 13 of Table 7 (IgG) (antibody, V domains shown)
VH: QVQLVQSGAEVKKPGASVKVSCKASGYTFTTYYMHWVRQAPGQGLEWMGGFDPEDGETIYAQKFQGRVTMTRDTSTSTVYMELSSLRSEDTAVYYCARHAVAGAVGAGYYYYGMDVWGQGTMVTVSS
VL: DIQMTQSPSSLSASVGDRVTITCRASESISNWLAWYQQKPGKAPKLLIYAASTLQSGVPSRFSGSGSGTDFTLTISSLQPEDFATYYCQQSYSVPFTFGPGTKVDIK
notes: IgG format
For B10, the binding result in experiment [1] is given as “binds”; in experiment [2] it was “no binding”.

B11: MAdCAM antibody Clone ID 41 of Table 7 (IgG) (antibody, V domains shown)
VH: QVQLVQSGAEVKKPGASVKVSCKASGYTFTSYYMHWVRQAPGQGLEWMGIINPSGGSTSYAQKFQGRVTMTRDTSTSTVYMELSSLRSEDTAVYYCARDTGYSYGRYYYYGMDVWGQGTLVTVSS
VL: DIQMTQSPSSLSASVGDRVTITCRASQSIGRWLAWYQQKPGKAPKLLIYDASNLQSGVPSRFSGSGSGTDFTLTISSLQPEDFATYYCQQSYSIPITFGQGTKVEIK
notes: IgG format
In the case of B11, the binding result in experiment [1] is given as “binds”; in experiment [2], “no binding”.

B12: MAdCAM antibody Clone ID 15 of Table 7 (IgG) (antibody, V domains shown)
VH: QVQLVQSGAEVKKPGASVKVSCKASGYTFTGYYMHWVRQAPGQGLEWMGWIGPNSGDTNYAQKFQGRVTMTRDTSTSTVYMELSSLRSEDTAVYYCARDLDHNWYFDLWGRGTLVTVSS
VL: DIVMTQSPLSLPVTPGEPASISCRSSQSLLHSNGYNYLDWYLQKPGQSPQLLIYSSSNRAPGVPDRFSGSGSGTDFTLKISRVEAEDVGVYYCMQALHIPLTFGGGTKVEIK
notes: IgG format
For B12, the values for the binding result in experiment [1] and in experiment [2] were “binds” and “no binding”, respectively.

B13: MAdCAM antibody Clone ID 19 of Table 7 (IgG) (antibody, V domains shown)
VH: EVQLLESGGGLVQPGGSLRLSCAASGFTFEDYAMHWVRQAPGKGLEWVSYLNSDGGSTSYADSVKGRFTISRDNSKNTLYLQMNSLRAEDTAVYYCAKDYCTNGVCAFDYWGQGTLVTVSS
VL: DIQMTQSPSSLSASVGDRVTITCRASQSISTYLNWYQQKPGKAPKLLIYDASNLETGVPSRFSGSGSGTDFTLTISSLQPEDFATYYCQQSYTIPITFGQGTRLEIK
notes: IgG format
In the case of B13, the binding result in experiment [1] was “binds”; in experiment [2] it was “no binding”.

B14: MAdCAM antibody Clone ID 34 of Table 7 (IgG) (antibody, V domains shown)
VH: QVQLVQSGAEVKKPGASVKVSCKASGYTFTGYYIHWVRQAPGQGLEWMGWMNPNSGNTGYAQKFQGRVTMTRDTSTSTVYMELSSLRSEDTAVYYCARDPGFLGYCSGGSCYDGWFDPWGQGTLVTVSS
VL: DIQMTQSPSSLSASVGDRVTITCRASQSISSYLHWYQQKPGKAPKLLIYAASSLQSGVPSRFSGSGSGTDFTLTISSLQPEDFATYYCQQSYTAPYTFGQGTKLEIK
notes: IgG format
On to B14, for which the binding result is reported as “binds” in experiment [1] and “no binding” in experiment [2].

B15: MAdCAM antibody Clone ID 39 of Table 6 (scFv) (scFv)
scFv: QVQLVQSGAEVKKPGASVKVSCKASGYTFTSYYMHWVRQAPGQGLEWMGWMNPNSGNTGYAQKFQGRVTMTRDTSTSTVYMELSSLRSEDTAVYYCARDLGYYDSSGYFGAFDIWGQGTTVTVSSGGGGSGGGGSGGGGSGGGGSDIQMTQSPSSLSASVGDRVTITCQSSEDISSSLNWYQQKPGKAPKLLIYAASSLQIGVPSRFSGSGSGTDFTLTISSLQPEDFATYYCQQTYSTPYTFGQGTKVEIK
As to B15, the binding result is “binds” in experiment [3] and “no binding” in experiment [4].

B16: MAdCAM antibody Clone ID 18 of Table 7 (IgG) (antibody, V domains shown)
VH: QVQLVQSGAEVKKPGSSVKVSCKASGYTFTNYYMHWVRQAPGQGLEWMGGIIPIVDRVKYAQKFQGRVTITADESTSTAYMELSSLRSEDTAVYYCAKGRYTVNYYYGMDVWGQGTTVTVSS
VL: DIQMTQSPSSLSASVGDRVTITCQANQDISNYLNWYQQKPGKAPKLLIYRASKLEAGVPSRFSGSGSGTDFTLTISSLQPEDFATYYCQQSSEIPYSFGQGTKLEIK
notes: IgG format
B16: the binding result in experiment [1] is on record as “binds”; in experiment [2] it was “no binding”.

The record behind these values is patent US20200392228A1 (PANDION OPERATIONS, published 2020).
